Test [1] concerns the target FGFR3-IIIb (human). Put plainly: SPR.
Test [2] deals with FGFR3-D2 (human) (UniProt P22607). As to the kind of experiment: SPR (Biacore).
The target of test [3] is FGFR3-IIIb (D2D3) (human). Put plainly: SPR (Biacore).
The target of test [4] is FGFR3-IIIb (human). As to the kind of experiment: SPR (Biacore T100), IgG captured by anti-human Fc, FGFR flowed.
For test [5], the target named is FGFR3-IIIb (human). Put plainly: blocking ELISA: FGFR3-IIIb-Fc captured on an anti-human Fc plate, antibody titrated, FGF-1 (with heparin) is the blocked ligand, bound FGF-1 read as OD450.

FGFR3-IIIb (human), sequence (chain, as listed by the source limits assumed): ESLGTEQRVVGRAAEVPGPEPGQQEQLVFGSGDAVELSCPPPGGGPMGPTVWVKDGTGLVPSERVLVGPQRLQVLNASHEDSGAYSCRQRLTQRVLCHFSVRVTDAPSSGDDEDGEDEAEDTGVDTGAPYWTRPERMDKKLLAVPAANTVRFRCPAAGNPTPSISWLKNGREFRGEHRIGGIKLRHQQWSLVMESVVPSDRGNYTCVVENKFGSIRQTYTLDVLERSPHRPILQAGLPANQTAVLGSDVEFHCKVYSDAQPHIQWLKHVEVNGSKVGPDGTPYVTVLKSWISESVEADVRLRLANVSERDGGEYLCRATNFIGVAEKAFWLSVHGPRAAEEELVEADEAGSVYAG
R3Mab (antibody), sequence (VH): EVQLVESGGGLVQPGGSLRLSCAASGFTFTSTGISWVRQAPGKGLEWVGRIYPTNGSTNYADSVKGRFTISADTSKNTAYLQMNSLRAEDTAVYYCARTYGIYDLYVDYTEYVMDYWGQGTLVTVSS
R3Mab (antibody), sequence (VL): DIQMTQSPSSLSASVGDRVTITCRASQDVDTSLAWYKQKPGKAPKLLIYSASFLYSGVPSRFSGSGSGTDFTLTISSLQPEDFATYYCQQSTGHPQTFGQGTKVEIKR
FGFR3-IIIb (D2D3) (human), sequence (chain, as listed by the source limits assumed): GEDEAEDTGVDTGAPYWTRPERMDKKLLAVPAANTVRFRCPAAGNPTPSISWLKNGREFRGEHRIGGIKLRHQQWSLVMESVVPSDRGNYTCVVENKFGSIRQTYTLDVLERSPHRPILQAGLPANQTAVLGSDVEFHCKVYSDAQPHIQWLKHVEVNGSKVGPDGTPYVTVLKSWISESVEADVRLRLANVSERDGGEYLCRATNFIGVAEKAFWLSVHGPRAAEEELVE
FGFR3-D2 (human), sequence (P22607 150-248 limits assumed): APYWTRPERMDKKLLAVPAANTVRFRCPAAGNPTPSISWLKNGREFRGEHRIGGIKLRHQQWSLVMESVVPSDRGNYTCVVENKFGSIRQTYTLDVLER

For R3Mab (antibody), the Kd in test [1] is 240 pM; in test [2], 260 pM; in test [3], 240 pM; in test [4] it was 240 pM. This substance also yielded an IC50 (read off the curve) in test [5] of 1000 to 2000 pM.

(Values after patent US20160244525A1.)
